Here are results for three substances from article PMC9337993.

The target in data set [1] is Cys95Ala SynZur (Synechococcus sp. WH8102). The data set can be described thus: native MS; native (near-native) ESI-MS, deconvoluted; WT after EDTA treatment (Zn1SynZur), Cys95Ala as purified.
Data set [2] shares this target. Briefly: SEC; analytical SEC, Superdex 200 10/300, 0.5 ml/min; Zn2SynZur 40 uM, Cys95Ala SynZur 30 uM, in 20 mM Tris-HCl pH 8, 300 mM NaCl; methods give 50 mM Tris pH 8.0, 100 mM NaCl. A general note: SEC sorts molecules by how far they enter the pores of the column.
Data set [3] addresses SynZur (SYNW2401), zinc uptake regulator Zur from Synechococcus sp. WH8102 (Synechococcus sp. WH8102). Briefly: nondenaturing SDS-PAGE; 10% Tris-glycine gel, 50 mM Tris pH 7.3, 50 mM MOPS, 0.0375% SDS, 4 °C, 100 V.
For data set [4] the target is unchanged. Briefly: native MS; native (near-native) ESI-MS, deconvoluted; WT after EDTA treatment (Zn1SynZur), Cys95Ala as purified.
The target is the same in data set [5]. Briefly: dynamic light scattering; 20 uM protein in 50 mM Tris, 25 °C; hydrodynamic diameter compared with values calculated for monomers, dimers and tetramers.
Data set [6] shares this target. The data set can be described thus: crystal structure; X-ray, 2.1 Å, space group P65, four molecules (two dimers) in the asymmetric unit; 100 mM magnesium acetate, 100 mM MES pH 6, 16% PEG 10000, 4 °C.
For data set [7], the target named is T1, Cys95Ala SynZur C95A (Synechococcus sp. WH8102) (UniProt Q7U3N0).
T1 sequence: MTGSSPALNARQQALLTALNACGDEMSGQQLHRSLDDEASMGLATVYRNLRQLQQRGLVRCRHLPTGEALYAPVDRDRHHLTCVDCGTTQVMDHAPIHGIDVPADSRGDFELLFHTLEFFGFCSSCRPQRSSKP
Briefly: EMSA. To be noted: EMSA: 10 mM Tris pH 8, 50 mM KCl, 2 mM MgCl2, 5% glycerol, 0.05 mg/ml BSA, 1 mM DTT, 3 mM spermidine, 5 ng DNA in 10 ul, room temperature 30 min, gel at 4 C …. Background: A gel shift assay detects complexes by their altered migration in electrophoresis.

A word on the stoichiometry N: it is the number of molecules, sites or subunits per partner or assembly. With Cys95Ala SynZur (natural protein), the stoichiometry N in data set [1] and in data set [2] was 2 each time.
Take “SynZur (SYNW2401), zinc uptake regulator Zur from Synechococcus sp. WH8102 (natural protein)”: the stoichiometry N in data set [3], in data set [4], in data set [5] and in data set [6] was 2 in each case.
On to “GTTCCATCCACAGCCACAACGCTTGGCTGGGCCGCCTGCGCCGCGACTGAACAACCCGAGACAACGCCCAGGGCGACCGCCAGACCCTTGACCAAAAGCGCAGGACGCGCCATGACACTCGAATGAGAATGATTATCATTTTTACAGTTCAACGGGTTGGCGCAACCCAATCGCGACCGCATGATGAAGTGAACCCACCGCAGCTGTGACAGAACCGCATTCGTCCATCAAGGGGCATCTAGCAGCCAGGAATCTC (double strand) [PznuA promoter (znuC-znuA intergenic fragment)]”, for which the binding entry in data set [7] was “no binding”.
